These results are taken from the domain aggregation screens of Martell et al. (2025).
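Further: 20 min heating vs room temperature control held 20 min.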

The series can be described thus: soluble fraction after stress (log2 fold change); higher = more stays soluble; pooled small domains, quantitative proteomics. Conditions: stress: 75 degC.
As to “HMHIELNDTQKRILNFLSDDPNLSAVRLAEQLGISSRNVEKNIKKLKEYGILIRHGSPKNGYWEIVV”, the “soluble fraction (log2)” value stood at 0.0385.

As for “HMHITSFTIKQADQIVGTTPVREQAVGAAKARAQQTGTPVSVIAYLDTGEEREVIIHPDGTN”, the “soluble fraction (log2)” value stood at 0.479.

For the sequence “HMHKLTSRQEEILQFIKDYLSEIGYPPTRSEIAQKMGFRSTNAAEEHLRALARKGAIEILPGPSRGLRLP”, the “soluble fraction (log2)” value is -1.13.

For “HMHKTEIKIPSREDILAVLRQAQAPLTREQVFEHLKLTEDQIPIIEKRLNAMERDGQLMPNRKGMLLLSTK”, the “soluble fraction (log2)” value is -0.0438.

Regarding “HMHKYEYESLNHVNVGSNLKYISTHFGQPKLIKKSKYHENLNFAYYLEKKFILTLILEGDRVNAYTITG”, the “soluble fraction (log2)” value was -0.732.

As for “HMHLEKGEVVVPDLKGLTMRQVGELLGKLNLRYSFSGTGLAVKQFPESGQIVNQGDIIEVIF”, the “soluble fraction (log2)” value was -0.56.

In the case of “HMHLLPAREQVAAYLRKAILRQEIREGTILNLADTARQMGVSVTPVREALQLLAAQGLVRLRPNKGAVVMG”, the “soluble fraction (log2)” value was -1.68.

With “HMHLNVYRDEDEAMLAFKDHLIGTHQPIRVRVEKALPDGTMGHKIVDTTIGRIVFNHNIPQD”, the “soluble fraction (log2)” value is -0.185.

Consider “HMHLTEAPLIKITYFEADQKKSGGQYITIINHLKKINEYENLLVLENGVKINIDDIYELESV”, for which the “soluble fraction (log2)” value was -0.191.

Turning to “HMHMNFGEILQTKRKEKGFTQEELAHQLLVSSKTISNWETNKTTPDIDNVIRISQLFDISLNQLLLE”, the “soluble fraction (log2)” value is -1.03.

As to “HMHMSKKLADSIISLRRKHGFSQEQLAEKIGVTRQAISNWERGTATPDVETLNLIAKLFDMDLLAIINGE”, the “soluble fraction (log2)” value came to 0.0813.

With “HMHNLYAPTQKEVDHARRVVEAAEAAAREGLGVVSLNGKMVDGPVIDRARLVLSRAELSGIRE”, the “soluble fraction (log2)” value is -0.157.

On to “HMHNNTITLNKKTYVYTASGKKMSKYLGYTYINKGTTLNYYGTKNIKGKTFYYIGDHAYVNAANVGKVTN”, for which the “soluble fraction (log2)” value is -2.07.

For “HMHNQIGDKIRELRTRSNLTQADLGKLVGVSMQAVSKWERGGTPDIDVLLSVAKYFNISLDEMVGRT”, the “soluble fraction (log2)” value is -1.51.

For the sequence “HMHPEITLHPVRANIYSISVKNATSMEIYSVSGQLVGIRELKEGTNTLDLTGYINGVYIVNLQNKAFKLVK”, the “soluble fraction (log2)” value is -2.38.

For the sequence “HMHPELSDSQRTLIALMASGLKDEAIAVEMGVGARTVRRKVQELYELLGVRTRFQAGVAANQRGW”, the “soluble fraction (log2)” value is -2.34.

Turning to “HMHPKDVPTRRELEVLQAVSEGLSTAEIGLRLDITENTVETFRRRLIQKFDAKNAIDLVVKAMAQGWIKV”, the “soluble fraction (log2)” value was -2.23.

In the case of “HMHQGTIEVGSIVHIEGQKALGTILSLTQREAIVGLGALKTTIPLKRLHLATEAEARRHKKSVTPQEAV”, the “soluble fraction (log2)” value was -0.66.

Turning to “HMHQIFAETVFEDIAFGPRNKGFNEEEVAKQVREAMAFVGLDYDTYAQRSPFQLSGGQMRRVAIAGVVA”, the “soluble fraction (log2)” value stood at 0.0104.

On to “HMHQKYIITGTRDTYVVSQGETLRTIAEHVYGSRGYARYIIEHNHITHPDDIPVGLTIRLPELELNPDYR”, for which the “soluble fraction (log2)” value was -1.9.

In the case of “HMHRAKRTKAQTQSSLESIEGIGPKTRKQLLVHFGGLAEVKAASVSELQKVKGISLDKAQKIYDFFHGS”, the “soluble fraction (log2)” value is -0.617.

For the sequence “HMHRNLSFEEEKEFLSAYTKQAEAGQIVDLNEMKAAYIEKVGHSIGGSQIYRMLERHGWRKVM”, the “soluble fraction (log2)” value is -0.446.

As for “HMHSDSEIEKGYTDDGQKLSNVNGVYMTKSEMYNKGIVEKDPNTGEEVMGRNRVNPVTGELE”, the “soluble fraction (log2)” value came to 0.442.

In the case of “HMHSDWITWWYLKDKRFDDDYSLWDRQPVHPEYFEVVKEFKAPPESNPGGLDEVKRILRTYIPDAFAP”, the “soluble fraction (log2)” value was -1.11.

Consider “HMHSESAAHQRTSVELFARIPETGNLQSAQRHFDVINQFGRFPHRNKILQRPSSEQEEAFLRQPGSG”, for which the “soluble fraction (log2)” value amounted to 0.265.

Consider “HMHSILDDIPTVGPARRKALMRRYESLEAIRQATVDELKELPEINEASAEAIVSFFAGQAKEG”, for which the “soluble fraction (log2)” value was -0.306.

As for “HMHSRTWTSADGVKTFEGELQSYDAASGKVSVILPNHKRITFKQEKLSADDIAWLEKNGNRP”, the “soluble fraction (log2)” value is -0.033.

On to “HMHTGLTNYEYKQIKSSLLKILTQSESMRLGELVDKVDQFESEKVTTVIRFLVGNEELMLFDDTLTLKKQL”, for which the “soluble fraction (log2)” value was -0.202.

Regarding “HMHTTIIVASRDIAAGSVLTSHDLSSVAWVGGAVPKGSYTAADLAVGKTAFTAFQQGEPILESRLAS”, the “soluble fraction (log2)” value was -0.35.

Consider “HMHVVVIDKQGALSYQGKAITLLDLKNIVIDVPKETPFLIKADKDIHLQSFVEVLDLIKTAGFKKVSLQ”, for which the “soluble fraction (log2)” value is -2.86.

Take “HMIAANMTISQRIAAALAEYGVMSVKDIAQEVLGATDKKDTEKIRVTLTRDHGKRFRTYSDGTWSLKDWRP”: the “soluble fraction (log2)” value is -2.19.

“HMIAAVIAQVANTNERIILEKRYLSFKSWDEIAVEMRISPRWAYTLHERALKAVDQVLSKQNNE”: the “soluble fraction (log2)” value is -4.19.

Take “HMIADDLKSLEGVDQDMLRDLAEAGINTRDDLAELAIDELIEITGVSTEEAEKVIMAARAHWFEEES”: the “soluble fraction (log2)” value amounted to 0.318.

With “HMIAKEDDGTAFLIDGKISSEEEFKTISKDDILEVFVYKETEIAQKKLDSINSINNTYYTSLIEILLKE”, the “soluble fraction (log2)” value was at least 1.04.

Take “HMIAKIEGQISYVGNRFLIVDVSGVGYKLFVTNEAISLSKVEESIKLWVHTAVRENSIDLYG”: the “soluble fraction (log2)” value is -1.7.

Consider “HMIANDDEIRKVVLEVIEEQPKAVEDVKNGRDRILDFLVGQVMKKTRGKANPSLASNLMKEEIEK”, for which the “soluble fraction (log2)” value was 0.453.

For the sequence “HMIANNFDEFVEKVSEAERKALNMPAGQEMTQKLLEMKLAANPNLTPEEWQRTKSEFMTFLFAVFVRE”, the “soluble fraction (log2)” value was -0.939.

As to “HMIAVLEEGSHFRAVNDVTGKPFGPEMVIKNGQVTAVGKTISTKPKNLLGKKEGTKFVISGKQYVIKDI”, the “soluble fraction (log2)” value was -0.0244.

As for “HMIDAHTALLAKRLEAKGMLPLTDKSSAEEIYAEFGISKKAFKKALGALYKERLVRIGEDGVVWI”, the “soluble fraction (log2)” value was -1.8.

Turning to “HMIDFIGLEAKLLSTISGEKMGNAEVIVDGNVMNIYVKSLDTSEIKFRENVLIIKQSDDKNYYLVAKP”, the “soluble fraction (log2)” value was -3.26.

Take “HMIDIDTILKKYKPGRRDELIPLMQEIQEVYGHLSEEAVVKIGTYVGLSTTKIYGLATFYDQFRF”: the “soluble fraction (log2)” value is -1.76.

In the case of “HMIDLGKSRTWHSENGRAIEARVINISEEQQTVEMQRVDGLKFELSWNQLSKADQTLLAEAAKKTALVA”, the “soluble fraction (log2)” value was -0.0567.

For “HMIDLPDIDIDFAKRTGVLEHITHTPARLETGKQHNTGVYFTDIPRGVDGLATMDHKRAEQLGYFKLDML”, the “soluble fraction (log2)” value amounted to 0.0214.

In the case of “HMIDNKIIRSLRQKRNMTLEELAKKANISVSYLSEIELGKKQPSLETINKLSQALNISREGLI”, the “soluble fraction (log2)” value is -0.0581.

On to “HMIDPHGSLTLDLRPRDARVEIIDSNKTYKPGVRLPMGEYAIAVSRRGYISETKRINIEYGDNRERVAL”, for which the “soluble fraction (log2)” value was 0.108.

Consider “HMIDSDENERIKELIKALISETLKSRGVSPEVISDIKERVDRLHNEELPRFAAELKELISRN”, for which the “soluble fraction (log2)” value is -0.0979.

With “HMIDSEEVMETIQDLGYSPVFDVKEKFYKIKEEQIGKITLEVHIILRYGMVDLVWIVRENGELLLG”, the “soluble fraction (log2)” value was -0.0952.

“HMIDTLEYIISEESKGLRADQAITMVNGEFSRSLIQKWIKKGSILVNGKKIKPRDILNLNDKVTINPEEN”: the “soluble fraction (log2)” value was -0.24.

For “HMIEDMQQWIRQIREIVSNRLDLTRNISDDEIREVISDIVMEQSRQQYMSLNEKKTLMEGVFNSMR”, the “soluble fraction (log2)” value is -0.534.

As for “HMIEEIETQFLFDFGLIGHPNSAKIREKLSEALGIGYVNGKQLQKRLMMFGITKQQVVDVLTD”, the “soluble fraction (log2)” value was -4.78.

Turning to “HMIEMAGGYRKGDRVELHSLKGAAEHNGKQGTVVGPQGERVKVLLDDSDSKTLALKVTNLTKLESA”, the “soluble fraction (log2)” value is 0.0656.

For “HMIEMGNRIRTLRKRRVGSQSEFAEKLDVSVVTISRIENGMTKIDAELLIKMSEVLQVPVNIILGM”, the “soluble fraction (log2)” value is -3.29.

Consider “HMIENPGQTFERIAGKITRTLRTGPLRIQQLDLLFSESGEQVMDVLRAMAENGEILIKDDTIQWNGHN”, for which the “soluble fraction (log2)” value is -0.246.

For “HMIERKLRKKEHFIASVGEKVKIKNFATETYKGELISADNEKVVVETEFGKEEITYDNILAAATYFE”, the “soluble fraction (log2)” value is -0.808.

Take “HMIFNENLKSAREKKGLSQKEVAEAIGVAKSTYSLYESGNREPNVQTIKRIADVLNVSADVLLGL”: the “soluble fraction (log2)” value was -0.136.

“HMIGELVVEDLAAASEINVDTIRYYQRLGLLEPPRRRGRRAVYDHTHLERLAEIRRLAGAGFTLAQIGRLK”: the “soluble fraction (log2)” value is -3.19.

For the sequence “HMIGILSDREAEILALLDEGLTNKAIGRRLNLAEPTVKFHLKNLYAKLGVGRRQLAVNVAKGSGLLNSD”, the “soluble fraction (log2)” value was -1.4.

On to “HMIGIRLKELVLKNQSAWVGLRVSELDISRKTMIVMIRRGDKMLIPNGSTILRSGDVLLLYTR”, for which the “soluble fraction (log2)” value is -0.682.

For the sequence “HMIGITTANLNVRTGTDTNYTSIAILPKGTKVNILEENVKPGWYKIQFDEIYAFVSSKYIKIQS”, the “soluble fraction (log2)” value is -3.56.

Take “HMIGMDMQELIGRYKGDPDEMGKIELAAMSMLKLSEDMSSDHVLQKSKLRQDGLWLLKYVQE”: the “soluble fraction (log2)” value was -0.637.

“HMIHEQSLHKIRNFIGSLPESLRTAFTLREQDGLSYEEIGKITNTPIGTVRSRIYRARESILDHINQE”: the “soluble fraction (log2)” value is -1.23.

“HMIHIGAQEALGEFQDEEGNLTASKKEVVAALVKKSKEVSFPTSYEYEVAARMAADEYNDAGQRMA”: the “soluble fraction (log2)” value worked out at 0.167.

Consider “HMIHKTDAINLGQRLLKSSLKEFDVSLKDIPNKTLMYILSEYKFNSLDDLYREIGLGNVIPKLVALRMAP”, for which the “soluble fraction (log2)” value was -0.585.

In the case of “HMIHTYVETRKVGNNDGLIRVDNKYYRVPQHLVGMKVQIQIDEATISVLQGGVMVATLDKTADVFNPQA”, the “soluble fraction (log2)” value is -3.24.

As for “HMIIDPQIRTLWTSQIIDILKSNPKRSIRSILELYPSNKESWVLIILQELIGEEKIIRDLDYLYFNK”, the “soluble fraction (log2)” value was -1.79.

“HMIIIMKMGADESQVQETIKRIKDLGFNTHLSKGENRTIIGVIGDVSSIDESDVERLRATPYIAEVVRVS”: the “soluble fraction (log2)” value is -0.455.

For the sequence “HMIIIPKKDYDVSQLDNLVSWLKDRGLEVHISRGENLTVIGLIGDTSKIDIDLIRSLDVVEEVKRIQ”, the “soluble fraction (log2)” value was -0.749.

As for “HMIIVMASSKKEDVAHVVHKIEELGYKAHVIVGVERTVVAAVGDERGKERLISLEALPHVEKVFPILK”, the “soluble fraction (log2)” value is -2.16.

For “HMIKEVEYSQFLQMTDQGEVGKVEINEQENSILFTDKAEKNIYKTGMVEDAELSMRLYEAGIPFSGQI”, the “soluble fraction (log2)” value came out at 0.101.

In the case of “HMIKEYEVLNYVTYEYDEIKKKLEEDFGIIVLMKEAYSDETPAGIIMDQDVEQGRIFKEGATNTITFTVS”, the “soluble fraction (log2)” value is -0.582.
